Test results: patent publication US6558950 (MCGILL UNIVERSITY, dated 2003)
Each block holds one binder with its values, some of them ahead of it. No end group written: not given here.

Assays:
32P-Bcl-2Δc21/his6/HMK [1] = biological target: T1, 32P-Bcl-2Δc21/his6/HMK (human, UniProt P10415 1-218, 32P-labelled with heart muscle kinase and 32P-gamma-ATP at the C-terminal HMK recognition sequence (arg-arg-ala-ser)); assay: Far Western blot of reverse phase HPLC fractions (FIG. 2B)
T1 construct: range 1-218; Expressed in E. coli from the pTrchis vector; a soluble mixture of monomers and dimers at pH 7.4; also called 32P-labelled Bcl-2 cytosolic domain probe
T1 sequence (P10415 other isoform, or with tags, fused parts or gaps mutant limits assumed): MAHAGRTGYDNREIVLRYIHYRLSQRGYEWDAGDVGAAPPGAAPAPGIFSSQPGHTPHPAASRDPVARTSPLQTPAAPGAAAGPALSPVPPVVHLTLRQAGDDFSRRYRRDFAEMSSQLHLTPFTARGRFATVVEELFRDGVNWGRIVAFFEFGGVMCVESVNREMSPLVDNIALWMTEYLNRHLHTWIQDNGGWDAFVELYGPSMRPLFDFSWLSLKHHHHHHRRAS
Method: Aliquots of fractions eluted from the gel were assayed by ^32P-Bcl-2Δc21/his6/HMK Far Western blotting analysis, and the radioactive bands corresponding to p20 and p21 Bax were detected and quantified by Phosphorimager. The levels relative to the maximal signal detected (set at 100) were plotted as a bar graph (upper panel). […] The positions of molecular mass marker proteins are indicated. The black bars on the graph indicate p20. The white stippled bars on the graph indicate p21 Bax. Figure 2B: FIG. 2B is a reverse phase HPLC analysis ($A280$ profile; upper panel) and corresponding graph (lower panel) showing proteins eluted between 190 and 220 ml from the preparative SDS PAGE of FIG. 2A. Equal aliquots from all fractions were assayed for ^32P-Bcl-2Δc21/his6/HMK interacting protein by Far Western blotting analysis, for which only p20 was detected. Amounts relative to the maximal signal detected (set at 100) were plotted as a bar graph (lower panel). […]
Identification of the p20 Bcl-2-binding polypeptide was obtained by NH_2-terminal peptide sequence analysis of p20 following its isolation by a combination of differential solubilization in detergent, preparative SDS PAGE, and reverse phase HPLC (FIGS. 2A and 2B). […] One candidate sequence emerged, and was the only sequence that was detected in the peak fraction of Bcl-2 binding activity (fraction 54, FIG. 2B).

32P-Bcl-2Δc21/his6/HMK [2] = biological target: T1, 32P-Bcl-2Δc21/his6/HMK; assay: Far Western blot of purified GST fusion proteins
[3] = biological target: T2, Bax (transfected, 293T cells) (UniProt Q07812 1-192, limits assumed); assay: anti-Flag co-immunoprecipitation, anti-Bax Western blot
T2 construct: Detected with rabbit anti-Bax sc-526; also called the pro-apoptotic member of the Bcl-2 family
T2 sequence (Q07812 whole entry): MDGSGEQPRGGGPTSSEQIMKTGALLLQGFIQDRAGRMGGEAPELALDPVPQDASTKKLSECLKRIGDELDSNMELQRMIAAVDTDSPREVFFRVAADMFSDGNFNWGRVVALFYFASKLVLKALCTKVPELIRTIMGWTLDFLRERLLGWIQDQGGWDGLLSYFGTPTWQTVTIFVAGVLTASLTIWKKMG
Method: After centrifugation at 11,000 g, the supernatant was incubated with 50 µl of a 1:1 slurry of protein G Sepharose for 1 hour at 4° C. The Sepharose was removed and the supernatant incubated with mouse M2 anti-Flag antibody (IBI-A Kodak Co., New Haven, Conn.) at 4° C. for 6–8 hours, at which time 20 µl of a 1:1 slurry of proteinG Sepharose was added. After 1 hour at 4° C., the beads were recovered, washed, and boiled in SDS sample buffer. Following SDS PAGE and transfer to nitrocellulose, blots were developed with either mouse anti-Myc 9E1D antibody or mouse anti-HA 12CA5 antibody (both from Babco, Berkeley, Calif.) or rabbit anti-Bax sc-526 antibody (commercially available from Santa Cruz Biotech., Inc., Santa Cruz, Calif.).

[4] = biological target: T3, 35S-labelled transcription-translation product of p28 Bap31 cDNA
T3 chain: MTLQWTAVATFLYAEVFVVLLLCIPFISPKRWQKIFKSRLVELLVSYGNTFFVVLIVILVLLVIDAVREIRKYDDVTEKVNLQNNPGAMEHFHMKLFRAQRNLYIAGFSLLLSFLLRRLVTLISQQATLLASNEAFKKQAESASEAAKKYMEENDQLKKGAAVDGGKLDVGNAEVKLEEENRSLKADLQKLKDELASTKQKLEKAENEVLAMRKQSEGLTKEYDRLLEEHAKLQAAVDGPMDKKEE

- binding result (32P-Bcl-2Δc21/his6/HMK [1]): binds
B1: p20 cleavage product of p28 Bap31 (other)
chain: MTLQWTAVATFLYAEVFVVLLLCIPFISPKRWQKIFKSRLVELLVSYGNTFFVVLIVILVLLVIDAVREIRKYDDVTEKVNLQNNPGAMEHFHMKLFRAQRNLYIAGFSLLLSFLLRRLVTLISQQATLLASNEAFKKQAESASEAAKKYMEENDQLKKGAAVD
notes: Endogenous product in apoptotic human KB cells, on SDS-PAGE blots; also called cleavage product "b"

- binding result (32P-Bcl-2Δc21/his6/HMK [2]): binds
B2: GST-p28 (1-164) (other)
chain: MTLQWTAVATFLYAEVFVVLLLCIPFISPKRWQKIFKSRLVELLVSYGNTFFVVLIVILVLLVIDAVREIRKYDDVTEKVNLQNNPGAMEHFHMKLFRAQRNLYIAGFSLLLSFLLRRLVTLISQQATLLASNEAFKKQAESASEAAKKYMEENDQLKKGAAVD
notes: Expressed in E. coli and purified on glutathione Sepharose; also called GST-p20; not shown: glutathione S-transferase encoded by pGEX-2T (Pharmacia)

- binding result (32P-Bcl-2Δc21/his6/HMK [2]): no binding
B3: GST-p28 (122-164) (other)
chain: LISQQATLLASNEAFKKQAESASEAAKKYMEENDQLKKGAAVD
modifications: also: GST fusion
notes: Expressed in E. coli and purified on glutathione Sepharose; not shown: glutathione S-transferase encoded by pGEX-2T (Pharmacia)

- binding result [3]: no binding
B4: Flag-tagged p28 Bap31 (other)
chain: MTLQWTAVATFLYAEVFVVLLLCIPFISPKRWQKIFKSRLVELLVSYGNTFFVVLIVILVLLVIDAVREIRKYDDVTEKVNLQNNPGAMEHFHMKLFRAQRNLYIAGFSLLLSFLLRRLVTLISQQATLLASNEAFKKQAESASEAAKKYMEENDQLKKGAAVDGGKLDVGNAEVKLEEENRSLKADLQKLKDELASTKQKLEKAENEVLAMRKQSEGLTKEYDRLLEEHAKLQAAVDGPMDYKDDDDKAMDKKEE

B5: CPP32 (caspase-3) (protein)
chain: SGISLDNSYKMDYPEMGLCIIINNKNFHKSTGMTSRSGTDVDAANLRETFRNLKYEVRNKNDLTREEIVELMRDVSKEDHSKRSSFVCVLLSHGEEGIIFGTNGPVDLKKITNFFRGDRCRSLTGKPKLFIIQACRGTELDCGIETDSGVDDDMACHKIPVEADFLYAYSTAPGYYSWRNSKDGSWFIQSLCAMLKQYADKLEFMHILTRVNRKVATEFESFSFDATFHAKKQIPCIVSMLTKELYFYH
- cleavage of 35S-labelled p28 Bap31 in vitro (SDS-PAGE) [4]: little reactivity was observed for caspase-3 over a wide range of enzyme concentration

- binding result (32P-Bcl-2Δc21/his6/HMK [2]): binds
B6: GST-p28 (1-246) (other)
chain: MTLQWTAVATFLYAEVFVVLLLCIPFISPKRWQKIFKSRLVELLVSYGNTFFVVLIVILVLLVIDAVREIRKYDDVTEKVNLQNNPGAMEHFHMKLFRAQRNLYIAGFSLLLSFLLRRLVTLISQQATLLASNEAFKKQAESASEAAKKYMEENDQLKKGAAVDGGKLDVGNAEVKLEEENRSLKADLQKLKDELASTKQKLEKAENEVLAMRKQSEGLTKEYDRLLEEHAKLQAAVDGPMDKKEE
notes: Expressed in E. coli and purified on glutathione Sepharose; The thrombin-site linker of pGEX-2T is not described; also called GST-p28 Bap31; not shown: glutathione S-transferase encoded by pGEX-2T (Pharmacia)

B7: FLICE (caspase-8) (protein)
chain: SESQTLDKVYQMKSKPRGYCLIINNHNFAKAREKVPKLHSIRDRNGTHLDAGALTTTFEELHFEIKPHDDCTVEQIYEILKIYQLMDHSNMDCFICCILSHGDKGIIYGTDGQEAPIYELTSQFTGLKCPSLAGKPKVFFIQACQGDNYQKGIPVETDSEEQPYLEMDLSSPQTRYIPDEADFLLGMATVNNCVSYRNPAEGTWYIQSLCQSLRERCPRGDDILTILTEVNYEVSNKDDKKNMGKQMPQPTFTLRKKLVFPSD
- p20 cleavage product quantitated on a Phosphorimager [4]: p28 Bap31 was more sensitive to cleavage by FLICE (caspase-8) than ICE (caspase-1)
